Measured values from patent publication US12324827B2, “Combination therapy for the treatment of migraines” (The University of Chicago, priority 2019, dated 2025).
“Also recorded” adds a separate entry of the source.

How the values were obtained:
trigeminal ganglion CGRP = test: CGRP immunostaining of trigeminal ganglion after recurrent spreading depression; type: in vivo, rat; details: n=5/group
Protocol: (§1) N2B delivery of 150 μg human recombinant IGF-1 (#191-G1; R&D Systems, Minneapolis, MN) in 50 μL sodium succinate buffer followed the previously described approach (21,51) that was based on the techniques of Liu and coworkers (24) in the recording laboratory under isoflurane anesthesia with spontaneous ventilation.
Induction of recurrent SD followed previously published aseptic techniques from the inventors' laboratory (8, 13, 21, 25, 26, 51) (FIG. 4). […]
Imaging was performed using a Photometrics self-calibrating digital camera QuantEM-512SC camera (500×500 pixels; Photometrics, Tucson, AZ) run on MetaMorph software (v. 7.0.4; Molecular Devices, Sunnyvale, CA) under blinded conditions (as previously described (13, 20-22). Image exposure, camera gain and thresholding were uniformly set (i.e., equivalently for experimental and sham groups for each imaging metric (i.e., MDA, CGRP and c-fos). Resultant images were digitally stored as TIFF files for subsequent analyses that continued under blinded conditions where image integrated fluorescence intensity was registered using MetaMorph software for MDA and CGRP.
Images of MDA and CGRP were analyzed while blinded and later decoded to ratios of experimental/sham image integrated optical intensity, a sensitive metric that not only accounts for the area but also the pixel intensity of related image fluorescence. […]

[1] = Blood glucose after nose-to-brain (N2B) delivery of IGF-1; type: in vivo, Wistar rats; details: for blood glucose level: n=4/group; for hypoglycemia: after nasal (N2B) delivery of IGF-1
Protocol: as §1
Blood glucose was monitored in a subset of animals. Immediately before N2B treatments and while anesthetized, blood glucose was sampled at time zero using a sterile, 27 gauge hypodermic needle to puncture the tip of the tail. A second drop of blood from punctures was used for glucose measurements (Contour Next EZ; Ascensia Diabetes Care, US, Inc.; Parsippany, NJ). After N2B treatments (IGF-1 or vehicle), animals were briefly re-anesthetized and maintained as above for each blood draw done over time (i.e., 0.3, 3, 6, and 24 hours).

[2] = test system: caudal trigeminal nucleus c-fos; test: c-fos immunostaining of caudal trigeminal nucleus after recurrent spreading depression; type: in vivo, rat; details: −4.5 mm from the obex, n=6/group
Excerpt: Induction of recurrent SD followed previously published aseptic techniques from the inventors' laboratory (8, 13, 21, 25, 26, 51) (FIG. 4). Animals were anesthetized with 5% isoflurane, which was later reduced to 1.5% inhalational isoflurane in oxygen during procedures and followed previous procedures for assessing the impact of recurrent SD after pretreatment with N2B IGF-1 (21, 51)).
One day after N2B treatment and surgery, animals were again anesthetized with 5% isoflurane in oxygen that was reduced to 1.5% during recordings of CSD followed by procedures to induce recurrent CSD every 10 minutes for 90 minutes as previously described (FIG. 4) (21,51). […]
For c-fos image analyses, the 5× digitally stored TIFF files were electronically enlarged to facilitate cell counting to 6,400×6,400 pixels and adjusted for brightness/contrast equivalently between experimental group pairs using Image J (v. 1.43i; National Institutes of Health public access). c-fos labeled nuclei were manually counted by an observer blinded to experimental conditions. Only intensely stained, round or oval-shaped nuclei were counted in lamina I-II [obex through −6.0 mm, recording the average of n=3 sections (technical replicates) at each anatomical level per animal (n≥5 biological replicates/group)]. […]

IGF-1: human recombinant IGF-1 (#191-G1; R&D Systems), 150 μg in 50 μL sodium succinate buffer, delivered nose-to-brain
log-ratio (IGF-1/sham) of CGRP immunostaining after recurrent CSD (trigeminal ganglion CGRP): −0.90±0.15
blood glucose level ([1]; 0.3-hour after N2B IGF-1 150 μg, non-fasted rats): 196 ± 22 mg/dL
blood glucose level ([1]; 3.0-hour after N2B IGF-1 150 μg): 114 ± 14 mg/dL
blood glucose level ([1]; 6.0-hour after N2B IGF-1 150 μg): 134 ± 7 mg/dL
blood glucose level ([1]; 24-hour after N2B IGF-1 150 μg): 150 ± 40 mg/dL
hypoglycemia [1]: did not induce hypoglycemia; also recorded: did not see evidence of hypoglycemia; also recorded: did not evoke hypoglycemia; also recorded: no evidence of hypoglycemia; also recorded: did not cause hypoglycemia; also recorded: no hypoglycemic effect; also recorded: did not trigger hypoglycemia
hypoglycemia ([1]; listed as insulin-like growth factor-1): no impact on blood glucose levels occurred
lowest IGF-1 glucose-related level seen ([1]; normal range for Wistar rats 85-132 mg/dL, control 132 mg/dL at time 0): 114 mg/dL
relative c-fos positive cell counts (sham set to 1.00) [2]: 0.52±0.11
